Experiments:
[1] = target: T1, αvβ3 expressed in CHO cells (Homo sapiens, UniProt P05106+P06756); assay: Flow cytometry ligand binding to αvβ3-CHO cells; details: for Bmax: arbitrary fluorescence units
T1 construct: cDNAs encoding full-length human αv and β3 were subcloned into pcDNA3 and pCDM8; expressed in transfected cells
Method: Binding of aPB, WOW-1 Fab and FITC-fibrinogen to cells was assessed by flow cytometry. Typically, cells were cultured overnight in low serum medium (e.g., 0.5% fetal bovine serum), resuspended in incubation buffer at 1-1.5×10^7 cells/ml, and 4-6×10^5 cells were incubated with one of these ligands for 30 min at room temperature in a final volume of 50 μl. […] In some experiments, ligand binding and αvβ3 expression were measured simultaneously by incubation of cells with ligands in the presence of biotin-SSA6 (7 μg/ml), a non-function-blocking anti-β3 monoclonal antibody (Abrams, C., Deng, J., Steiner, B., and Shattil, S. J. (1994) J. Biol. Chem. 269, 18781-18788). After 30 min at room temperature, cells were washed and incubated with phycoerythrin-streptavidin (1:25 final dilution; Molecular Probes) for 20 min on ice. In the case of WOW-1 Fab, an Alexa-conjugated anti-(His)6 monoclonal antibody (Accurate Chemical and Scientific Corp., Westbury, N.Y.) was added at this stage (50 μg/ml). Cells were washed and resuspended in 0.5 ml incubation buffer containing 2 μg/ml propidium iodide (Sigma, St. Louis, Mo.). Ligand binding (FL1 channel) was analyzed immediately on the gated subset of live cells (propidium iodide-negative, FL3) that was strongly positive for αvβ3 expression (FL2). Binding isotherms were subjected to non-linear, least squares regression analysis using an equation for one-site binding (Prism 2.0 software; GraphPad Software, San Diego, Calif.). Two-tailed P values for paired samples were obtained by Student's t test.
In order to document and study the significance of affinity modulation of αvβ3, a monovalent reporter ligand was developed analogous to the activation-dependent anti-αIIbβ3 antibody, PAC1 Fab. Preliminary binding studies were conducted with the new antibody, designated WOW-1 Fab, using purified integrins in the presence of 50 μM MnCl2, which activates integrins by a direct effect on the extracellular domain (Bazzoni, G., and Hemler, M. E. (1998) Trends Biochem. Sci. 23, 30-34). […] To determine if WOW-1 Fab reacted preferentially with activated αvβ3 in cells, Fab binding was compared with that of multivalent penton base using CHO cells stably-transfected with human αvβ3 (αvβ3-CHO cells).

[2] = test system: αvβ3-CHO cells; assay: Cell adhesion assay on immobilized penton base; assay type: cell-based
Method: Immulon-2 microtiter wells (Dynex Laboratories, Chantilly, Va.) were coated with unlabeled penton base (1-100 ng/well) overnight at 4° C., followed by blocking with 20 mg/ml BSA. CHO cells stably expressing αvβ3 were labeled with BCECF-AM (Molecular Probes, Eugene, Oreg.), and cell adhesion to the immobilized penton base was quantitated by cytofluorimetry at 485/530 nm (Hato, T., Pampori, N., and Shattil, S. J. (1998) J. Cell Biol. 141(7), 1685-1695).
In order to determine whether changes in receptor affinity affect the adhesive function of αvβ3, the adhesion of αvβ3-CHO cells to immobilized penton base was quantitated. Adhesion was dependent on the coating concentration of penton base and was half-maximal at 30-40 ng/well (FIG. 7). Activation of αvβ3 by AP5 led to a 7-fold leftward shift in the dose-response curve such that half-maximal adhesion now occurred at approximately 5 ng of penton base/well. Treatment of the cells with 1 mM MnCl2 caused an even further shift in the dose-response curve, either because it induced a more profound effect on αvβ3 or it activated additional αv integrins (FIG. 7). […] Thus, affinity modulation of αvβ3 promotes both cell adhesion and post-ligand binding responses, such as cell spreading.

[3] = test system: resting or thrombin-stimulated human platelets; assay: Flow cytometry ligand binding to platelets

T1 sequence (P06756 31-889 limits assumed): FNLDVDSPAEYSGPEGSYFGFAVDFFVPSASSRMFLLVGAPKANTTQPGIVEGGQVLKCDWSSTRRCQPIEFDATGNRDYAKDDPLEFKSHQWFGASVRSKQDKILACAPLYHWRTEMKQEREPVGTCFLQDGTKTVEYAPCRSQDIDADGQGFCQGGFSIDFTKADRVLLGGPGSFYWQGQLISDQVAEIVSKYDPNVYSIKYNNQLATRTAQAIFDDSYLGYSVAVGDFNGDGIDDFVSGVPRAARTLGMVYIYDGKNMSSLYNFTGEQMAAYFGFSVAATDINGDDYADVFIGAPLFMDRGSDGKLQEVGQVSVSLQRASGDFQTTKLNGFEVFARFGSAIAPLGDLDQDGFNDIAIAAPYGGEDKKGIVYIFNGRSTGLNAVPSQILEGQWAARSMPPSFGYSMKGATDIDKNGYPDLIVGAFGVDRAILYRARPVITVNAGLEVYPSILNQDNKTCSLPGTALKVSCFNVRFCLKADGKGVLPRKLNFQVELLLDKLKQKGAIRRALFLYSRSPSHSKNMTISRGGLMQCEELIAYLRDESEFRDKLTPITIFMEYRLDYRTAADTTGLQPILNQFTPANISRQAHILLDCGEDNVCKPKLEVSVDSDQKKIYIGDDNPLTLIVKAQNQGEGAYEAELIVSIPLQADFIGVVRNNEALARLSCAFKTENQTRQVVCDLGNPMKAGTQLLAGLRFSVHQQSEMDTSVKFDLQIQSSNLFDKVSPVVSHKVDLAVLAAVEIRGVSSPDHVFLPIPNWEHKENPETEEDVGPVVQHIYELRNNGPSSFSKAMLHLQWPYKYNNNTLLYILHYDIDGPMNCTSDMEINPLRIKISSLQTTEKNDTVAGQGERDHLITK
T1 sequence (P06756 891-1048 partner limits assumed): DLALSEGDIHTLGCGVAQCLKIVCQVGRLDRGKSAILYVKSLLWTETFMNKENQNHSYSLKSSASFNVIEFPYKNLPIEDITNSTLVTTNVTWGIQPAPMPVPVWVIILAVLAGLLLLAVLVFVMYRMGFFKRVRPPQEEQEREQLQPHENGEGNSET
T1 sequence (P05106 27-788): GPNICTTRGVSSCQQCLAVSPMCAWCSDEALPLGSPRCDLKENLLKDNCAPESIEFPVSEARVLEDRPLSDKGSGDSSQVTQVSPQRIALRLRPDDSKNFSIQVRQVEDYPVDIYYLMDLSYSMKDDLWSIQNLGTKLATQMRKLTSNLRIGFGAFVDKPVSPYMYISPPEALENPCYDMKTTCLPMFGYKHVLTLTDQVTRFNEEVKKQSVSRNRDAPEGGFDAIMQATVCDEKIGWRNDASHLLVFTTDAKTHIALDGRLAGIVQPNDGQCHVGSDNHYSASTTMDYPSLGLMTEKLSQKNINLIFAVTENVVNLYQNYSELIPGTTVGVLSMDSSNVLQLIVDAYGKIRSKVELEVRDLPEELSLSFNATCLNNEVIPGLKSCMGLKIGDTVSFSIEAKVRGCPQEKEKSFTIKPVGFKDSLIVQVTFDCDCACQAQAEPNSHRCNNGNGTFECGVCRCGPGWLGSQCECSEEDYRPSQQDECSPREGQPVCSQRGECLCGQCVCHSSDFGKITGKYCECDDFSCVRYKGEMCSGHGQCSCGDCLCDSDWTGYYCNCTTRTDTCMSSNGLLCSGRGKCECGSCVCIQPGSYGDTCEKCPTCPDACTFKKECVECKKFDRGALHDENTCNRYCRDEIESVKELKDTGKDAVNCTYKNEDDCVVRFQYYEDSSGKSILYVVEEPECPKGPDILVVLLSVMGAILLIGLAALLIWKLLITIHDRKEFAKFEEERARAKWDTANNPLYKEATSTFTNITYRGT

Substance	Bmax ([1]; Activating antibody AP5)	Bmax ([1]; No Treatment)	affinity/avidity of αvβ3 for ligand, fold lower than that for aPB ([1]; unstimulated αvβ3-CHO cells)	coating concentration at half-maximal adhesion ([2]; no additive, 90 min at 37° C.)	coating amount at half-maximal adhesion ([2]; αvβ3 activated by AP5)	binding to platelets [3]	aPB binding on a per receptor basis (mfi of aPB binding divided by mfi of SSA6 binding) ([1]; AP5-treated αvβ3-CHO cells, 75 nM aPB)
Fibrinogen: Purified human fibrinogen labeled with FITC	77 ± 6 units	126 ± 74 units	approximately 15 fold				
Penton Base: Recombinant multivalent penton base coat protein from adenovirus type 2, baculovirus-expressed	69 ± 5 units	80 ± 4 units		30-40 ng/well	approximately 5 ng of penton base/well		
aPB: Penton base conjugated to Alexa-488						neither aPB nor WOW-1 Fab bound detectably	0.034±0.002

From patent US20040005550A1, “Methods and compositions useful for targeting activated vitronectin receptor alphavbeta3” (The Scripps Research Institute, priority 1998, published 2004)
